The text below walks through data of patent publication US20210079037A1, “LIGHT-SWITCHABLE POLYPEPTIDE AND USES THEREOF” (TECHNISCHE UNIVERSITÄT MÜNCHEN, priority 2017, published 2021).

Numbered stars: 1 amine (or outer) side, 2 acyl side, 3 side chain; on linkers, the order of the positions; unused ones are H or OH. Square brackets hold non-standard residues; d marks the D form. Caf = 4′-carboxyphenylazophenylalanine, O=C([C@H](Cc1ccc(/N=N/c2ccc(C(=O)[*:3])cc2)cc1)N[*:1])[*:2]

In this experiment the target is mouse anti-6×His antibody alkaline phosphatase (AP) conjugate (Arigo Biolaboratories). In words: ELISA, curve fit; ProtL^Caf337-ABD in a dilution series on HSA-coated plate, Ig-AP conjugate at 1:1000; ground state (trans-Caf). In general terms: An ELISA detects its analyte on a solid surface through an enzyme-linked reagent.

B1: ProtL^Caf337-ABD (designed binder)
chain: MKEEVTIKVNLI[Caf]ADGKTQTAEFKGTFEEATAKAYANADLSAKENGEYTADLEDGGNTINIKFAGGAVDANSLAEAKVLANRELDKYGVSDYYKNLINNAKTVEGVKALIDEILAALP
B1 yielded a dissociation constant (Kd) of 140 nM.

For orientation: Kd means a measure of binding affinity in units of concentration. Lower therefore signals tighter binding.
